Substrate in data set [1]: Cc1cc2nc3c(=O)[nH]c(=O)nc-3n(C[C@H](O)[C@H](O)[C@H](O)COP(=O)(O)OP(=O)(O)OC[C@H]3O[C@@H](n4cnc5c(N)ncnc54)[C@H](O)[C@@H]3O)c2cc1C
Briefly: HPLC of MTA-CoA formation, initial rates, nonlinear fit. It is filed as biochemical, Roseovarius nubinhibens. As to conditions: MMPA-CoA as substrate, pH 9.0, 40°C, varied: cofactor.

Substrate in data set [2]: CSCCC(=O)SCCNC(=O)CCNC(=O)[C@H](O)C(C)(C)COP(=O)(O)OP(=O)(O)OC[C@H]1O[C@@H](n2cnc3c(N)ncnc32)[C@H](O)[C@@H]1OP(=O)(O)O
The description is as above. The data set is classed as biochemical, Roseovarius nubinhibens. The following applies: FAD, pH 9.0, 40°C.

The data set “crystal structure” deals with the molecule itself. Briefly: crystal structure.

Changes are numbered by the printed parent chain. Numbers in names are those of the source.

B1: DmdC (ISM) (Roseovarius nubinhibens ISM; T170A) (protein)
chain: MTRYTAPTQDIQYLLHDVLDVANDPTPGYAELEPDFTSAVLEEAGKIAGEVLHPLNAVGDQEGCVLENGVVRPPKGFKEAFDQVREGGWTALDLPEQYGGQNMPYLLGTAVGEMFSGANQAFTMYQGLTHGAASAILVHGTDQQKDTYLPKMFSCDWTGTMNLTEPHCGADLGLMRSKAVPQDDGSYAISGQKIFISAGEHDMAENIIHLVLAKIPGGPEGIKGVSLFIVPKFLVKEDGSLGERNGVKCSKIEEKMGIHGNSTCVMDYDGAKGWLLGEEHKGMRAMFTMMNEARIGVGMQGLAQAEVAYQNALDYARDRLQGRSVTGVENPDGPADPLIVHPDIRRNLLDQKSFIEGARAFLLWGAQMIDRAERGKDEAAHGMVSLLTPVIKGFLTDEGYDMTVQAQQVYGGHGYIEETGMSQFTRDARIAMIYEGANGVQALDLVGRKLAQDGGKHVMAFFDLVKGFIKEAGTDGAMAEFTEPLKSASKDLQSAGMFFMQNGMKNPNAALAGSYDFMHLFGHVCLGLMWGRMAEASLKALAEGRGDANFHETKLATARFYMTRRLPATKLHLARIESGADPVMALDADRF
Broadly, the Km is the substrate concentration at which the rate is half of its maximum. With B1, the Km in data set [1] is 0.1125 ± 0.0045 mM.

B2: DmdC (ISM) (Roseovarius nubinhibens ISM; R284A) (protein)
chain: B1 chain with A170T, R284A
In the case of B2, in data set [2], the Km was 12.4 ± 1.0 mM.

B3: DmdB Lys523Ala mutant (Ruegeria lacuscaerulensis ITI_1157) (enzyme, UniProt P0DX84 1-539, looked up)
chain: MLGQMMTQPLLISSLIDHAARYHGQTEIVSVETDGTVTRTNWGEIAANARRMGSALTKLGLQPQDRIGTLAWNNRRHLEIYYAASGAGFVCHTINPRLFPEQLVYIINHAQDRVLFFDATFLPLVAAIRDQLTEVKHFVLMGPRNEDALQQIPGLEFYDELIETGDTDFEWPVFDENTASSLCYTSGTTGHPKGVLYSHRSTVLHSFASNTRDVIGYSAMDVVMPVVPMFHVNAWGSPYGCAMSGAQMVLPGPDLHGEALVNLIDTYGVTLAMGVPTIWQGLLAHAAKCGTKLESLERTVIGGAACPPSMIATFREKYGVDTVHAWGMSEMSPLGTANIPLAKHRKLPIEEQHKLRENQGRPPFGVELKIVDDDGNDLPHDGVTQGDLMVRGHWVLDSYFQLKDQELLQDGWFATGDVATLDPDGYMTIRDRSKDIIKSGGEWISSVELENIAVAHPKLATAAVIGVPHPKWDERPLLVAVKAEGEDPSEAELLEFFDGKIAKWQVPDKVVFVDALPLNATGAVLKRKLRDEFKDALTG
B3: the binding result in the data set “crystal structure” is listed as “binds”.
